In patent publication US9688764B2, “Methods of treating breast cancer by administering anti-human prolactin receptor (PRLR) antibodies” (REGENERON PHARMACEUTICALS, INC., priority 2013, dated 2017):

T1: HEK293/mPRLR (Mus musculus, UniProt Q08501)
T1 construct: HA; expressed in transfected cells; host or cells: HEK293
T1 sequence (Q08501 20-608): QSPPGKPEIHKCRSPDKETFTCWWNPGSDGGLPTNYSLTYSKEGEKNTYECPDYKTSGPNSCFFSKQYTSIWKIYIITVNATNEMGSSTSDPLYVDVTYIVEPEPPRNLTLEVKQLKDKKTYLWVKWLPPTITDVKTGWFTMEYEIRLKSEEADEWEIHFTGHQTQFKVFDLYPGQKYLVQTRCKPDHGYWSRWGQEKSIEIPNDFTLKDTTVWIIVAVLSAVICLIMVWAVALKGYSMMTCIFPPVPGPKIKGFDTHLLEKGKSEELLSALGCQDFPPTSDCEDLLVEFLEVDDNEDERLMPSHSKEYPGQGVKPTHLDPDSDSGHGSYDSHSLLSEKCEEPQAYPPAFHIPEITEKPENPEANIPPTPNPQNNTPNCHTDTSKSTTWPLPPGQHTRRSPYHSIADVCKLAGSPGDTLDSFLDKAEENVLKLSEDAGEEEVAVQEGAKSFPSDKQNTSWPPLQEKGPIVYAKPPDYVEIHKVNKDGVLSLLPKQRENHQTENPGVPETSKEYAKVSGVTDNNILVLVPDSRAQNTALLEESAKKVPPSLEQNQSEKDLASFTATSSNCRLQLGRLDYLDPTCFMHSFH

T2: T47D (native PRLR expressing cell line) (Homo sapiens, UniProt P16471)
T2 construct: a native PRLR expressing cell line (T47D); endogenous in cells; host or cells: T47D
T2 sequence (P16471 25-622): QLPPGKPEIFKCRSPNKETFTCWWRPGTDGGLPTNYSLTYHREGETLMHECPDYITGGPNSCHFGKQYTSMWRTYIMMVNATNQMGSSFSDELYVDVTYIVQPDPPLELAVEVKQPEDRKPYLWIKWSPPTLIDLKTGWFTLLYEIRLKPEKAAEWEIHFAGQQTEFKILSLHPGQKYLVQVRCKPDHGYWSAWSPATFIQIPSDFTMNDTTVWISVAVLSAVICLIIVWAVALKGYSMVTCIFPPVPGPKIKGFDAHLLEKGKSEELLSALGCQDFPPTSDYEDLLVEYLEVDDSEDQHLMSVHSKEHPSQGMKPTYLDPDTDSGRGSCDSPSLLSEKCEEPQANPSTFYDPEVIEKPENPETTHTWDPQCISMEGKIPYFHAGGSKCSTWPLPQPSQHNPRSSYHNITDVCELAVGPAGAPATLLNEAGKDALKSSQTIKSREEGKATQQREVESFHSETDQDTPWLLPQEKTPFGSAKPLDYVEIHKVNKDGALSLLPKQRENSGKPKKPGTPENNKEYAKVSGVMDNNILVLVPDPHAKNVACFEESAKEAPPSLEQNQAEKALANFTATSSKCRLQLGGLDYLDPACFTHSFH

T3: HEK293/hPRLR (Homo sapiens, UniProt P16471)
T3 construct: HA; expressed in transfected cells; host or cells: HEK293
T3 sequence (P16471 25-622): T2 sequence (P16471 25-622)

T4: PRLR-expressing cells (T47D) (Homo sapiens, UniProt P16471)
T4 construct: a native PRLR expressing cell line (T47D); endogenous in cells; host or cells: T47D
T4 sequence (P16471 25-622): T2 sequence (P16471 25-622)

B1: H1H6797P: anti-PRLR antibody, human IgG1 Fc; HCVR/LCVR SEQ ID NOs 178/186 (antibody, V domains shown)
VH: EVQLVESGGGLVQPGGSLRLSCIVSGFTFSGSWMSWVRQLPGKGLEWVANIKEDGSDSYYVDSVEGRFTISRDNAKSSLYLQMNSLRVDDTAVYFCARARTVPLHYWGQGTLVTVSS
VL: DIQMTQSPSTLSASVGDRVTITCRASQSINIWLAWYQQKPGKAPKLLIYRASYLESGVPSSFAGGGSGTEFTLTISSLQPDDFGTYYCQHYNSYPFTFGQGTKLEIK
modifications: human IgG1 Fc
B2: H1H6800P: anti-PRLR antibody, human IgG1 Fc; HCVR/LCVR SEQ ID NOs 194/202 (antibody, V domains shown)
VH: EVQLVESGGGLVQPGRSLRLSCAASGFTFDGYAMHWVRQGPGKGLEWVSGISWYSDTLGYADSVKGRFTISRDNAKNSLYLQMNSLRTEDTAFYYCAKISSSGWAFDYWGQGTLVTVSS
VL: EIVLTQSPGTLSLSPGERATLSCRASHSVSSAYLAWYQQKPGQTPRLLIYGTSSRATGIPDRFSGSGSGTDFTLTISRLEPEDFAVYYCQQYGSSPLFTFGPGTKVDIK
modifications: human IgG1 Fc
B3: H1H6803P: anti-PRLR antibody, human IgG1 Fc; HCVR/LCVR SEQ ID NOs 226/234 (antibody, V domains shown)
VH: EVQLVESGGGVVRPGGSLRLSCAASGFKFDDYGMTWVRHVPGKGLEWVSGINWNGGRTGYTDSVKGRFTISRDNAKNSLYLQMNSLRAEDTALYHCAGARRDAFDIWGQGTMVTVSS
VL: DIQMTQSPSSLSASIGDRVTITCRASQNIIKYLNWYQQNAGKAPKLLIYTASSLQSGVPSRFSGSGSGTDFTLTISSLQPEDFATYYCQQSSSSPYTFGQGTKLEIK
modifications: human IgG1 Fc
B4: H1H6792P: anti-PRLR antibody, human IgG1 Fc; HCVR/LCVR SEQ ID NOs 130/138 (antibody, V domains shown)
VH: EVQLVESGGGLVQPGRSLRLSCAASGFTLDDHAVHWVRQAPGKGLEWVSGISWNSVYIDYADSVKGRFTIFRDNAKNSLYLQMNSLRAEDTAFYYCARDIEGARDYWGQGTLVTVSS
VL: DIQMTQSPSSLSASVGDRVTITCRASQGIRNDLGWYQQKPGKAPKRLIYAASSLQSGVPSRFSGSGYGTEFTLTISSLQPEDFAPYYCLQHNSYPLTFGGGTKVEIK
modifications: human IgG1 Fc
B5: H1H6801P: anti-PRLR antibody, human IgG1 Fc; HCVR/LCVR SEQ ID NOs 210/218 (antibody, V domains shown)
VH: QVQLQQSGPGLVKPSQTLSLTCVISGDSVSSNTAWNWVRQSPSRGLEWLGRTYYRSKWYNDYAVSVKSRITINPDTSKNQFSLLMNSVTPEDTAVYYCARVVRGLNYFDYWGQGTLVTVSS
VL: DIVMTQSPDSLAVSLGERATINCKSSQSVLYNSNNKNYLAWYQQKPGQPPKLLIYWSSSRESGVPDRFSGSGSGTDFTLTISGLQAEDVAIYYCQQYSTIPYTFGQGTKLEIK
modifications: human IgG1 Fc
B6: H1H6795P: anti-PRLR antibody, human IgG1 Fc; HCVR/LCVR SEQ ID NOs 162/170 (antibody, V domains shown)
VH: QVQLVQSGAEVKKPGASVKVSCKASGYTFGTSGITWVRQAPGQGLEWMGWSSAYNGKTDYAQKFQDRVTMTTDTSTTTGYMEMRSLTSDDTAVYYCTTVVRRPFDFWGQGTLVTVSS
VL: DIQMTQSPSSLSASVGDRVTITCRASQDINNFLAWFQQKPGKAPKSLIYAASSLQSGVPSKFSGGGSGTDFALTISSLQPEDFATYYCQQYSSYPITFGQGTRLEIK
modifications: human IgG1 Fc
B7: H1H6793P: anti-PRLR antibody, human IgG1 Fc; HCVR/LCVR SEQ ID NOs 146/154 (antibody, V domains shown)
VH: EVQLVESGGGLVQPGGSLRLSCAASGFSFSIYAMSWFRQAPGKGLEWVSAINGRGDGTHYADSVKGRFTISRDNSKTTLYLQMSSLRAEDTAVYYCAKPVMSTNGFDIWGQGTMVTVSS
VL: DIQMTQSPSTLSASVGDRVTITCRASQSISSWLAWYQLKPGKAPKLLIYKASNLESGVPSRFSGSGSGTEFTLTISSLQPDDFATYYCQQYNIYWTFGQGTKVEIK
modifications: human IgG1 Fc

target: T1, HEK293/mPRLR; test: FACS cell surface binding; details: not given
Procedure: (§1) The ability of anti-PRLR antibodies to selectively bind PRLR expressing cell lines was next determined. Human, monkey macaca fascicularis, and mouse PRLR constructs with an HA tag were stably introduced into HEK293 cells via Lipofectamine 2000-mediated transfection methodology. Transfectants (HEK293/hPRLR, HEK293/mfPRLR and HEK293/mPRLR) were selected for at least 2 weeks in complete growth media plus G418.
(§2) Cell surface expression of PRLR on 293/hPRLR cells was assessed via FACS analysis. Briefly, 1×10^5 cells were incubated with 10 μg/ml of Control antibody I, or an isotype control for 30 min on ice in antibody dilution buffer. Following two washes with antibody dilution buffer, cells were incubated with 10 μg/ml of PE conjugated anti-human secondary antibodies for 30 min on ice. Following two additional washes, samples were run on a Hypercyt® cytometer and analyzed in FORECYT™ (IntelliCyt, Albuquerque, N. Mex.). The mean fluorescence intensities (MFI) were expressed as fold change above isotype control levels (background). FACS binding confirmed that Control I selectively bound to 293/hPRLR expressing cells with MFIs that were 30 fold above background (isotype ctrl) levels and less than 2 fold binding on parental cells.
(§3) Next, the anti-PRLR antibodies of the present invention were tested via FACS for selective binding to the engineered overexpressing PRLR HEK293 cell lines, as well as to non-expressing HEK293 cells and a native PRLR expressing cell line (T47D).

Row | FACS Cell Binding (Fold Above Background) | Molecule
1 | 2 | B1
2 | 1 | B2
3 | 1 | B3
4 | 3 | B4
5 | 56 | B5
6 | 1 | B6
7 | 2 | B7

tested on: HEK293 (non-expressing parental cells); test: FACS cell surface binding; details: not given
Procedure: as §1, §2, §3

Row | Molecule | FACS Cell Binding (Fold Above Background)
8 | B1 | 1
9 | B2 | 1
10 | B3 | 1
11 | B4 | 1
12 | B5 | 7
13 | B6 | 1
14 | B7 | 2

target: T2, T47D (native PRLR expressing cell line); test: FACS cell surface binding; details: not given
Procedure: as §1, §2, §3

Row | FACS Cell Binding (Fold Above Background) | Molecule
15 | 38 | B1
16 | 41 | B2
17 | 39 | B3
18 | 37 | B4
19 | 45 | B5
20 | 34 | B6
21 | 43 | B7

target: T3, HEK293/hPRLR; test: FACS cell surface binding; details: not given
Procedure: as §1, §2, §3

Row | FACS Cell Binding (Fold Above Background) | Molecule
22 | 1 | B1
23 | 35 | B2
24 | 39 | B3
25 | 37 | B4
26 | 47 | B5
27 | 1 | B6
28 | 2 | B7

target: T4, PRLR-expressing cells (T47D); test: Antibody binding and internalization by PRLR-expressing cells (imaging); type: cell-based; details: [mAb] (0.67 nM), alexa488 intensity in intracellular vesicles, 1 h at 37° C.
Procedure: In this Example, the internalization of anti-PRLR antibodies by PRLR-expressing cells (T47D) was assessed. Briefly, 20,000 T47D cells were seeded in collagen coated 96 well plates. […] Cells were then incubated with alexa488 conjugated anti-hFc Fab secondary antibodies for 30 minutes on ice followed by two additional PBS washes. Antibodies were allowed to internalize for 1 h at 37° C. in internalization buffer (PBS+2% FBS) or remained at 4° C. Cells were fixed in 4% formaldehyde, nuclei were stained with DRAQ5 (Cell signaling), and images were acquired on the ImageXpress micro XL (Molecular Devices). Whole cell alexa488 intensity at 37° C. (Binding) and the alexa488 intensity in the intracellular vesicles at 37° C. (Internalization) were determined via Columbus image analysis software (PerkinElmer).

Row | % Internalization relative to Control I [%] | Molecule
29 | 145.2 | B1
30 | 198.3 | B2
31 | 190.5 | B3
32 | 155.9 | B4
33 | 148.9 | B5
34 | 150.7 | B6
35 | 179.9 | B7

same assay, conditions: [mAb] (0.67 nM), whole cell alexa488 intensity at 37° C.

Row | % Total Binding relative to Control I [%] | Molecule
36 | 151.2 | B1
37 | 186.8 | B2
38 | 205.5 | B3
39 | 110.6 | B4
40 | 155.7 | B5
41 | 123.4 | B6
42 | 177.9 | B7
